# T1: HCoV-HKU1 recombinant soluble S ectodomain protein (prefusion-stabilized trimer) (HCoV-HKU1)
# T1 chain: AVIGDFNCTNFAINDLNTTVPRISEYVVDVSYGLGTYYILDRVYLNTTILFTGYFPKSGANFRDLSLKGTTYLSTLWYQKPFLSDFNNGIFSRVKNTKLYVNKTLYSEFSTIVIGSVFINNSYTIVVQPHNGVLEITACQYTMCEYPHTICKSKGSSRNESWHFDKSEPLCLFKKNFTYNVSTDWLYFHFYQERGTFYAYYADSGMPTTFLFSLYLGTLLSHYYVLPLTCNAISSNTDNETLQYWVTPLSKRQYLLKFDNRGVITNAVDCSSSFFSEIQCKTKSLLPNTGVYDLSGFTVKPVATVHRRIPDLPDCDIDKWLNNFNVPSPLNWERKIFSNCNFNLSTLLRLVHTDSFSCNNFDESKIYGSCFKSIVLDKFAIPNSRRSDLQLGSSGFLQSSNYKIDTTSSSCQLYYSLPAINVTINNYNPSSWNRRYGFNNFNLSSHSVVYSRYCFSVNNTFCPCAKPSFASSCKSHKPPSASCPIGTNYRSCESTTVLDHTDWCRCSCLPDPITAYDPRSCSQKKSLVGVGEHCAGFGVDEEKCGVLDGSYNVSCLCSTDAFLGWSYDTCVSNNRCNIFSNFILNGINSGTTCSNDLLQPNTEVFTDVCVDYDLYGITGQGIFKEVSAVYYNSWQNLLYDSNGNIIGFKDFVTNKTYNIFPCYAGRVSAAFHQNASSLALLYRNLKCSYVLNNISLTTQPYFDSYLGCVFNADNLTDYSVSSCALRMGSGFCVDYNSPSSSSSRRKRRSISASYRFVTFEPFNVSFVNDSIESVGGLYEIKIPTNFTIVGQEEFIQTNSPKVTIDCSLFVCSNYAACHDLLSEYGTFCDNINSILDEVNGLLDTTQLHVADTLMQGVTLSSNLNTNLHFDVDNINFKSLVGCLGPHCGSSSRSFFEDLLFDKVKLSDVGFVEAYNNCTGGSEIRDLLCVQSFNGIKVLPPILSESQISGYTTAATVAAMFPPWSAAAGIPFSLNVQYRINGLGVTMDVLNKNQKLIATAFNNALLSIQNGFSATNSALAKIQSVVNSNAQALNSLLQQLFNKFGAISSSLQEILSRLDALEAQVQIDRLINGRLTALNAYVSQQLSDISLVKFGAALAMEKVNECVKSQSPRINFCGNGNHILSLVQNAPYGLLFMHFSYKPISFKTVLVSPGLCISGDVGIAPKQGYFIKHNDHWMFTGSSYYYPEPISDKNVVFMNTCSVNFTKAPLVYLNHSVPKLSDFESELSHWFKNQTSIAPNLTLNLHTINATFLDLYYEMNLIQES
# What was measured:
# SARS-CoV-2 S = SARS-CoV-2 S (SARS-CoV-2, UniProt P0DTC2 1-1208); test: BLI
# [1] = target: T1, HCoV-HKU1 recombinant soluble S …; test: BLI
Binder,Kd (SARS-CoV-2 S),Kd [1]
"CC40.8 IgG (antibody, V domains shown) VH: EVQLLESGGGLVQPGGSLRLSCAASGFTFSSYVMTWARQAPGKGLEWVSAISGTGYTYYADSVKGRFTVSRDNSKNTLFLQMSSLRAEDTAVYYCAITMAPVVWGQGTTVTVSS VL: SYELTQPPSVSVSPGQTARITCSGDALPKRYAYWYQQKSGQAPILVIYEDKKRPSGIPERLSGSKSGTVATLTISGAQVEDEADYYCYSTDSSGNHAVFGGGTQLTVL",1 nM,
"Fab CC40.8 (Fab, V domains shown) VH: EVQLLESGGGLVQPGGSLRLSCAASGFTFSSYVMTWARQAPGKGLEWVSAISGTGYTYYADSVKGRFTVSRDNSKNTLFLQMSSLRAEDTAVYYCAITMAPVVWGQGTTVTVSS VL: SYELTQPPSVSVSPGQTARITCSGDALPKRYAYWYQQKSGQAPILVIYEDKKRPSGIPERLSGSKSGTVATLTISGAQVEDEADYYCYSTDSSGNHAVFGGGTQLTVL",,< 1 nM
"CC40.8 (IgG) (antibody, V domains shown) VH: EVQLLESGGGLVQPGGSLRLSCAASGFTFSSYVMTWARQAPGKGLEWVSAISGTGYTYYADSVKGRFTVSRDNSKNTLFLQMSSLRAEDTAVYYCAITMAPVVWGQGTTVTVSS VL: SYELTQPPSVSVSPGQTARITCSGDALPKRYAYWYQQKSGQAPILVIYEDKKRPSGIPERLSGSKSGTVATLTISGAQVEDEADYYCYSTDSSGNHAVFGGGTQLTVL",,< 1 nM
"CC40.8 Fab (Fab, V domains shown) VH: EVQLLESGGGLVQPGGSLRLSCAASGFTFSSYVMTWARQAPGKGLEWVSAISGTGYTYYADSVKGRFTVSRDNSKNTLFLQMSSLRAEDTAVYYCAITMAPVVWGQGTTVTVSS VL: SYELTQPPSVSVSPGQTARITCSGDALPKRYAYWYQQKSGQAPILVIYEDKKRPSGIPERLSGSKSGTVATLTISGAQVEDEADYYCYSTDSSGNHAVFGGGTQLTVL",5 nM,
"Fab CC9.3 (Fab, V domains shown) VH: QVQLQESGPGLVKPSETLSLTCTVSGGSIRSDFWSWIRQFPGKGLEWIGYIYYSGSTNYNPSLESRVTISVDTSKNEFSLKLNYVTAADTAIYYCARETRWNWLDSWGQGTLVTVSS VL: DIVMTQSPDSLAVSLGERASINCKSSQTISYISNNKNYLAWYQQKPGQPPRLLIYWASTRESGVPDRFSGGGFGTDFTLTISSLQAEDVAVYYCQQYFNTPWTFGQGTKVEIK",,< 1 nM
"CC9.3 Fab (Fab, V domains shown) VH: QVQLQESGPGLVKPSETLSLTCTVSGGSIRSDFWSWIRQFPGKGLEWIGYIYYSGSTNYNPSLESRVTISVDTSKNEFSLKLNYVTAADTAIYYCARETRWNWLDSWGQGTLVTVSS VL: DIVMTQSPDSLAVSLGERASINCKSSQTISYISNNKNYLAWYQQKPGQPPRLLIYWASTRESGVPDRFSGGGFGTDFTLTISSLQAEDVAVYYCQQYFNTPWTFGQGTKVEIK",112 nM,
"CC9.3 IgG (antibody, V domains shown) VH: QVQLQESGPGLVKPSETLSLTCTVSGGSIRSDFWSWIRQFPGKGLEWIGYIYYSGSTNYNPSLESRVTISVDTSKNEFSLKLNYVTAADTAIYYCARETRWNWLDSWGQGTLVTVSS VL: DIVMTQSPDSLAVSLGERASINCKSSQTISYISNNKNYLAWYQQKPGQPPRLLIYWASTRESGVPDRFSGGGFGTDFTLTISSLQAEDVAVYYCQQYFNTPWTFGQGTKVEIK",2 nM,
"CC9.3 (IgG) (antibody, V domains shown) VH: QVQLQESGPGLVKPSETLSLTCTVSGGSIRSDFWSWIRQFPGKGLEWIGYIYYSGSTNYNPSLESRVTISVDTSKNEFSLKLNYVTAADTAIYYCARETRWNWLDSWGQGTLVTVSS VL: DIVMTQSPDSLAVSLGERASINCKSSQTISYISNNKNYLAWYQQKPGQPPRLLIYWASTRESGVPDRFSGGGFGTDFTLTISSLQAEDVAVYYCQQYFNTPWTFGQGTKVEIK",,< 1 nM
"Fab CC9.2 (Fab, V domains shown) VH: EVQLVESGGGLVQPGRSLRLSCVAPGFTLGGYGMHWVRQAPGKGLEWVGLISYDGSVQKYGSSVKGRFTISKDNSKNTLYLEMNSLRADDTAVYFCVKGASLGDNWGQGTLVTVSS VL: EIVMTQSPLSLPVTLGQPASISCRSSQSLVYSDGDTYMSWFHQRPGQSPRRLIYKVSNRDFGVPDRFSGSGSGTDFTLKISRVEAEDVGVYYCMQGTHWPYTFGPGTKVEIK",,< 1 nM
"CC9.2 (IgG) (antibody, V domains shown) VH: EVQLVESGGGLVQPGRSLRLSCVAPGFTLGGYGMHWVRQAPGKGLEWVGLISYDGSVQKYGSSVKGRFTISKDNSKNTLYLEMNSLRADDTAVYFCVKGASLGDNWGQGTLVTVSS VL: EIVMTQSPLSLPVTLGQPASISCRSSQSLVYSDGDTYMSWFHQRPGQSPRRLIYKVSNRDFGVPDRFSGSGSGTDFTLKISRVEAEDVGVYYCMQGTHWPYTFGPGTKVEIK",,< 1 nM
"CC9.2 IgG (antibody, V domains shown) VH: EVQLVESGGGLVQPGRSLRLSCVAPGFTLGGYGMHWVRQAPGKGLEWVGLISYDGSVQKYGSSVKGRFTISKDNSKNTLYLEMNSLRADDTAVYFCVKGASLGDNWGQGTLVTVSS VL: EIVMTQSPLSLPVTLGQPASISCRSSQSLVYSDGDTYMSWFHQRPGQSPRRLIYKVSNRDFGVPDRFSGSGSGTDFTLKISRVEAEDVGVYYCMQGTHWPYTFGPGTKVEIK",16 nM,
"CC9.2 Fab (Fab, V domains shown) VH: EVQLVESGGGLVQPGRSLRLSCVAPGFTLGGYGMHWVRQAPGKGLEWVGLISYDGSVQKYGSSVKGRFTISKDNSKNTLYLEMNSLRADDTAVYFCVKGASLGDNWGQGTLVTVSS VL: EIVMTQSPLSLPVTLGQPASISCRSSQSLVYSDGDTYMSWFHQRPGQSPRRLIYKVSNRDFGVPDRFSGSGSGTDFTLKISRVEAEDVGVYYCMQGTHWPYTFGPGTKVEIK",1680 nM,

# From US20240182551A1 (published 2024)
